Test results: the domain aggregation screens of Martell et al. (2025)

Test: soluble fraction after stress (log2 fold change); higher = more stays soluble; pooled small domains, quantitative proteomics
Settings: stress: 75 degC
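Further: 20 min heating vs room temperature control held 20 min.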

| Sequence | soluble fraction (log2) |
| --- | --- |
| HMVSEASELTDTINKIGSLAQALVGANKLSKTDLVGIIKKYHTSANYNSITDIGVAKNILAELEAKN | 0.13 |
| HMVSFSIDEALVSAVKGPRSANVMSIQRQFLVRLSVERDGRVTITGANSKSVQQAREAVEAAVEEAKLHP | -2.96 |
| HMVSGVMAQQAIAVLVQQEDKHAPLSDQALAERLQVQGIDISRRTVAKYRQLLQIPSAATRR | -0.669 |
| HMVSIGSQVAKRRRELRLTQQNLAEKMGVSFQAISSWEREEFLPDINKLQKLAAILNTKISYLLEE | -1.33 |
| HMVSINETAFIQIKNSSATEIKEKITALKLDELKNVTITADIRTNKLIVVGPKATINKIQELVIELDTES | -0.174 |
| HMVSKTEAMAVFIADKLQEGMVPANEILELYKGMQLSDRTIRNAKKQLGIVSIRKDGQWYWSL | -1.05 |
| HMVSLPSPLAGKVVSLTVQAGQEVKEGDEIMVLEAMKMNTQVHAPSSGRILALRVQPGDQVEEGQTLVTMG | 0.14 |
| HMVSLSNQVFEKIEYDILSGKYKIGEIISEKRLSSELGVSRTPIREALGRLSEEGLVGDSPSGTVVLGI | -0.368 |
| HMVSRVTTPGVVGKTWQETKQILKQADLTVGSLTRDGKDVTPADGDLVTAQNPSAGQAIVRGSSVDLTFDK | 0.0104 |
| HMVSSYTMAIQINGKLRATHDFSVDTSQEDIKKIIINLPAIQKYINGVEIKKFIIVPQKIVNIV | -2.73 |
| HMVSTEDEISDKLLLDFALEKLSENEKQIVKLRYYNSLTQSKTAEILNMTQVQVSRSEKKILAKLRGII | -0.0838 |
| HMVSTGIMVVDGRGSVLQHNEAALRQLGVEVLTFESQVKEKLASEDFSVRETTAMLNGKKVRIIAFSDIR | -2.44 |
| HMVSVEELLSSLDPNEATVLKLLAERSSGVDELMERSGLDFSALSEAITNLELFGYIAREMDGVYSFS | -1.05 |
| HMVSVPDIGEKLPDFTGTPKRLLTPLLNKNDVNIIIKGDGWVVSQKPPAGTPVTKGMTIEFTL | -0.525 |
| HMVTDSGEIEKLVDEVIDNNPDQVQQFREGKQQVLSYLVGQAMKLSRGKANPNQVNQFLRDKL | 0.433 |
| HMVTDTGEIEAIIDRVISENPDSVSDFKNGKERALKFLMGQAMKESKGKANPQIVNELLLKKL | -0.00511 |
| HMVTDVDELEKLIQKVLDSNSSQVDEYRQGKEKVFGFFVGAVMKLTKGQADPDVVNQLLKEKLSGRK | -0.177 |
| HMVTDVDYSTFLSQVEEGKVESVTIEDGEILFKGKDENGEARWYITGEMNDPNLVERLKDKVPSFNAPA | 0.194 |
| HMVTIYQRIMLVLEDKQVSVNALSKLVDMSQTTLNTQLKGERTLSANVVAKVLVAYPDVSAEWLMRGVGTM | -0.96 |
| HMVTLYDGFLSELRKRIPRGAELTNTLVDMLYIEREAVYRRLRGEVPFTFIEVMTVSKELGISLDNLAQA | -1.38 |
| HMVTTADIILEFYSRNPNATLTQAAQHVARATGTTYSRQAISAQLKRLEVAGLVERNGHVTV | -0.226 |
| HMVTTLLIINVAGKVKNPGVYQLPPGSRVVDALEAAGQQLKGVDISDINLARVLVDGEQILIGSN | -2.5 |
| HMVTVQEGETLSAIAARSGVSVKDLVRANEIRNPDSIQEGQVLFVP | 0.115 |
| HMVVADFQNYTVKPKENLYSLTKTSGLSQEELVALNPELKNGVQEGMVIKLPAAVKLMAQPE | 0.201 |
| HMVVLPGEVLRINVIQEGKEHGQGVGYMDDGTMVVIENGREFIGEYMEVNVTKVLQTAAGRMIFGRVD | -2.31 |
| HMVVLPPTEDAPEWAQVFDRLGRPESADGYKLPVPEGADPAFAKLASAKMHELGLSAKQGAALAAWWNEQA | 0.0475 |
| HMVVMEIGANGSEVVKLQKRLNQLGYYTEHASGVYDVKTASAVNEFQRQNELNATGKADYTTLDMIYNQ | -0.00159 |
| HMVVRRLPFGFSKRFGVLVVPGTSNPVELLYREDASMQSLLEARRVVAQPVAFKKTDVESFNAQLARAHEN | -1.66 |

| Sequence | soluble fraction (log2) |
| --- | --- |
| HMVVSDSAEIDKIVQDVIAANPKAIEDFKSGKTNVTGWLMGQVMKLSHGKANPKQATEILNKYLSK | 0.513 |
| HMVVTRVKAIDVVNIRKSDSETADKLGKAAVGDEFDLLEKKGNGWSKISYEGGEAYIKSEFLEPSE | 0.602 |
| HMVVVMEKNASSAEIEQVQERLRQAGFKIHLSQGVERTIIGAIGDRSQVDLGFLEALPGVEKVVPIMK | 0.171 |
| HMVVYFGGPVMLERGIVLHTPDISTKGTINVSDDFALTAHKEILDNINKDTSSLQFKLAIGH | -0.616 |
| HMVWINIRDLSDLFSKSGKSENSKNILDLQTLKIEKLLGGGQINTPYTIKVKQATPSAIEKVKQAGGEVIL | -0.104 |
| HMVWPETEAIVTEDFIGKKRSEVQQEGVIFEFFGEGDMVIDQLPRGGVTLNESGRVWIYLGEDTF | -0.78 |
| HMVYFAKNIRHLRRLRGMSQELLAAELDITRARLGAYEESRSEPPLHLLIKISEFFKLPVDIIVKNDLTKS | -4.88 |
| HMVYFDDEELDRFAGRAADSYTSDETDEFRDVMLTLLPADVMPWTQSIEMRGILLPEQLRDELLML | -0.391 |
| HMVYVPTKAEVSQQFQDASKARFDERYAIVELADGRRTMAPLAFLTKADHAWLKQLASTSPLPKGK | -0.16 |
| HMWAQSVSLHGLLGRQALLIVDGKPPRAVAPGQTHLGVTVLSTDEDRAVVALAGGQRLTLRVGESPVSVG | -1.51 |
| HMWMEKEELLWNDIIRGGVERGELREDTDIQEAAALFRQVFIGLAYQMSFSDGLDVGILRKRFHHIYGLLT | -0.173 |
| HMWNKGETKIPTQAQNELIKRRQAGATWTSLSEWLKATYGIDIHRTNIQRWYDKEVYLDQEN | -0.531 |
| HMWNPVLVVRGDFPKDLATTLLKMIFAQKEALNPHILFQNLLRTDNITFRESYPYHSASKTMFRF | -0.276 |
| HMWPQIAGFADRFGLSDTERRIVTLMSHGRSRKIIASTLGYSQNTIRNYTRNIYAKAGVHSKQELLDLLDP | -1.96 |
| HMWPTPRTWSALMNELNLYKENHGYANIVDIPSEKIRRMADGIIGEDMAVRYVAFLQSHASS | -1.7 |
| HMWQKGEPAITGLKRISKPGLRIYSKNDELPIVYGNRGIAVISTNKGVMTGIEAKRSGVGGEVLFYV | -0.112 |
| HMWSAREQVVNSLREAILTSELKAGERLVLSDLSARLGVSVTPIREALQSLEREGLVQLMPHQEAVVV | 0.18 |
| HMWVETITTKAGITKYKFQERYTDTYSGKTKRVSVTYTSNSRQAYKLAQAELQKKIDLATNTD | -0.638 |
| HMYAHLGKNLEVVINKALAQEDPEKKAGFAHHIAYYMKLAYSNWHKELVHDDAIRSELDTITGGELEFSN | 0.609 |
| HMYAHTPEMEAMNELGLEPPVTLDEIKKTYKTLVKKYHPDHNKEDPEAEEKLKKVNMAYTILKVAYTEFEK | -0.246 |
| HMYALGIPVSQYRRTTQVLGHESSYPIAYEDEKQDDDFYLFKFPNIDEYDFKKIVILLKQNGITT | -2.11 |
| HMYDNTVTKYVNSLSVYVRKGPSTSDEIVTSLIKDTDVTVVGENGEWYKIKYKEFEGYIYKNLLSDNKT | -1.91 |
| HMYDRIKLLKLREKRGLTQYELAEKAGISVVTLNKIETSDMAKPFASTLKKIALALGVGIEELS | -2.2 |
| HMYEDGGAFLKAEREKYGLTLTDIYEHTHIPVRKLKAYEMHEEEMPDRTRALLELYFDQVAYEYES | -0.734 |
| HMYEDIDSAYRILEINSTVSNQEIKNAYRRMAKKYHPDKVAHLGVEHQKGAEEKFKKVQEAYILIKKRRG | -0.918 |
| HMYEENFSKIKNDISTIFKRHKISFTNNFISHLSSVFNTDSLTNKMELEKLDSFLINNKKVTENELLKFII | -0.0789 |
| HMYEINEIIRERRLKKGLTQAQVAKYLGVSAPAVNKWEKGTTYPDLVLLPALARLLDTDLTTLLSF | -1.46 |
